# Where a chain is given by its changes, count along the chain named.
# T1: human IL-18Rβ ECD Fc fusion (118-AP-100, R&D Systems) (human, UniProt O95256 20-356)
# T1 construct: Bought protein; also called hIL-18Rβ; recombinant human IL-18Rb; not shown: Fc tag of the bought fusion protein, not described
# T1 sequence: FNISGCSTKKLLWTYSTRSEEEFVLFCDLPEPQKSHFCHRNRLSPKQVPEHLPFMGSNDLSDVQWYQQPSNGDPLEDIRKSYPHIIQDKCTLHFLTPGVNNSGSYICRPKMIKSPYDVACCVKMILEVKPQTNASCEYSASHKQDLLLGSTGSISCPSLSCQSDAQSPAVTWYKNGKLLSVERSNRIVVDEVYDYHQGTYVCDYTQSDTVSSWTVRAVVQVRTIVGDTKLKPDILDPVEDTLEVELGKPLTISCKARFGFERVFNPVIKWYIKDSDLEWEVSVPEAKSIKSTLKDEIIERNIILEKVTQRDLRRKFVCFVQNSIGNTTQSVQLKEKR
# B1: 3131 AM2-9 (Fab, V domains shown)
# VH: EVQLVESGGGLVQPGGSLRLSCAASGFNLYYSSMHWVRQAPGKGLEWVASIYSSYGYTYYADSVKGRFTISADTSKNTAYLQMNSLRAEDTAVYYCARSSFSHGYGWYGLDYWGQGTLVTVSS
# VL: DIQMTQSPSSLSASVGDRVTITCRASQSVSSAVAWYQQKPGKAPKLLIYSASSLYSGVPSRFSGSRSGTDFTLTISSLQPEDFATYYCQQYGYHNAGLITFGQGTKVEIK
# notes: Fab
# B2: 3131 AM2-3 (Fab, V domains shown)
# VH: B1 VH with Y55S, Y59S
# VL: B1 VL with N95Y
# notes: Fab
# B3: 3131 AM2-7 (Fab, V domains shown)
# VH: B1 VH with Y55H, Y57G
# VL: B1 VL with N95D
# notes: Fab
# B4: 3131 AM2-4 (Fab, V domains shown)
# VH: B1 VH with Y55S, Y57S, Y59C
# VL: B1 VL with N95Y
# notes: Fab
# B5: 3131 AM2-14 (Fab, V domains shown)
# VH: B1 VH
# VL: B1 VL with N95G
# notes: Fab
# B6: 3131 AM2-13 (Fab, V domains shown)
# VH: B1 VH
# VL: B1 VL with N95D
# notes: Fab
# B7: 3131 AM2-6 (Fab, V domains shown)
# VH: B1 VH with Y55H, Y57G, Y59N
# VL: B1 VL with N95Y
# notes: Fab
# B8: 3131 AM2-5 (Fab, V domains shown)
# VH: B1 VH with Y55S, Y57D, Y59H
# VL: B1 VL with N95Y
# notes: Fab
# B9: 3131 AM2-1 (Fab, V domains shown)
# VH: B1 VH
# VL: B1 VL with N95H
# notes: Fab
# B10: 3131 AM2-2 (Fab, V domains shown)
# VH: B1 VH with Y55H, Y57R, Y59G
# VL: B1 VL with L54R, Y55D, N95Y
# notes: Fab
# B11: Fab A3 (Fab)
# heavy: EVQLVESGGGLVQPGGSLRLSCAASGFNLYSSYIHWVRQAPGKGLEWVASIYSSSGYTYYADSVKGRFTISADTSKNTAYLQMNSLRAEDTAVYYCARSVHSYYSSAAYYAMDYWGQGTLVTVSSASTKGPSVFPLAPSSKSTSGGTAALGCLVKDYFPEPVTVSWNSGALTSGVHTFPAVLQSSGLYSLSSVVTVPSSSLGTQTYICNVNHKPSNTKVDKKVEPKSCDKTHT
# light: DIQMTQSPSSLSASVGDRVTITCRASQSVSSAVAWYQQKPGKAPKLLIYSASSLYSGVPSRFSGSRSGTDFTLTISSLQPEDFATYYCQQSYFLITFGQGTKVEIKRTVAAPSVFIFPPSDSQLKSGTASVVCLLNNFYPREAKVQWKVDNALQSGNSQESVTEQDSKDSTYSLSSTLTLSKADYEKHKVYACEVTHQGLSSPVTKSFNRGECGGSDYKDDDDK
# notes: also called FA3
# B12: 3131 AM2-24 (Fab, V domains shown)
# VH: B1 VH
# VL: B1 VL with A51D, N95Y
# notes: Fab
# B13: 3131 AM2-15 (Fab, V domains shown)
# VH: B1 VH with Y55S, Y57D, Y59G
# VL: B1 VL with N95Y
# notes: Fab
# B14: 3131 AM2-28 (Fab, V domains shown)
# VH: B1 VH
# VL: B1 VL with A51R, L54D, Y55S, N95Y
# notes: Fab
# B15: 3131 AM2-26 (Fab, V domains shown)
# VH: B1 VH
# VL: B1 VL with A51E, Y55S, N95Y
# notes: Fab
# B16: 3131 AM2-31 (Fab, V domains shown)
# VH: B1 VH
# VL: B1 VL with A51E, N95Y
# notes: Fab
# B17: 3131 AM2-21 (Fab, V domains shown)
# VH: B1 VH
# VL: B1 VL with A51G, L54G, Y55R, N95Y
# notes: Fab
# B18: 3131 AM2-18 (Fab, V domains shown)
# VH: B1 VH with Y55G, Y57S, Y59S
# VL: B1 VL with N95Y
# notes: Fab
# B19: 3131 AM2-17 (Fab, V domains shown)
# VH: B1 VH with Y55H, Y57N, Y59D
# VL: B1 VL with N95Y
# notes: Fab
# B20: 3131 AM2-25 (Fab, V domains shown)
# VH: B1 VH
# VL: B1 VL with L54R, Y55D, N95Y
# notes: Fab
# B21: 3131 AM2-30 (Fab, V domains shown)
# VH: B1 VH
# VL: B1 VL with L54E, Y55R, N95Y
# notes: Fab
# B22: 3131 AM2-36 (Fab, V domains shown)
# VH: B1 VH with Y55S, Y57S, Y59S
# VL: B1 VL with N95Y
# notes: Fab
# B23: 3131 AM2-S-G (Fab, V domains shown)
# VH: B1 VH
# VL: B1 VL with S50G, N95Y
# notes: Fab
# B24: 3131 AM2-35 (Fab, V domains shown)
# VH: B1 VH
# VL: B1 VL with N95S
# notes: Fab
# B25: 3131 AM2-32 (Fab, V domains shown)
# VH: B1 VH
# VL: B1 VL with A51S, L54V, N95Y
# notes: Fab
# B26: 3131 AM2-S-Y (Fab, V domains shown)
# VH: B1 VH
# VL: B1 VL with S50Y, N95Y
# notes: Fab
# B27: 3131 AM2-37 (Fab, V domains shown)
# VH: B1 VH with Y55S, Y57S, Y59S
# VL: B1 VL with N95S
# notes: Fab
# B28: 3131 AM2-S-T (Fab, V domains shown)
# VH: B1 VH
# VL: B1 VL with S50T, N95Y
# notes: Fab
# B29: 3131 AM2-S-H (Fab, V domains shown)
# VH: B1 VH
# VL: B1 VL with S50H, N95Y
# notes: Fab
# B30: 3131 AM2-33 (Fab, V domains shown)
# VH: B1 VH with Y57H, Y59S
# VL: B1 VL with N95Y
# notes: Fab
# Target: T1, human IL-18Rβ ECD Fc fusion …
# Assay: ELISA on recombinant human IL-18Rβ, normalised OD 450 nm, Fab with PBS or with saturating IgG 3131 [top plot]
# Description: (§1) The results are presented in FIG. 9, in which the binding signals for purified. […] Error bars represent standard deviation of replicate measurements.
row,binding result,Binder
1,binds,B1
2,binds,B2
3,binds,B3
4,binds,B4
5,binds,B5
6,binds,B6
7,binds,B7
8,binds,B8
9,binds,B9
10,binds,B10

# Target: T1, human IL-18Rβ ECD Fc fusion …
# Assay: biolayer interferometry (BLI) after legend paragraph 36; drawn table, head kd (10^-4 s^-1), Human receptor
row,koff,Binder
1,0.0015 s⁻¹,B11

# Target: T1, human IL-18Rβ ECD Fc fusion …
# Assay: biolayer interferometry (BLI) after legend paragraph 36; drawn table, head KD (nM), Human receptor
row,Kd,Binder
1,30 nM,B11

# Target: T1, human IL-18Rβ ECD Fc fusion …
# Assay: multipoint direct binding ELISA (drawn table, column EC50 (nM))
row,EC50,Binder
1,86 nM,B11

# Target: T1, human IL-18Rβ ECD Fc fusion …
# Assay: ELISA on recombinant human IL-18Rβ, normalised OD 450 nm, Fab with PBS or with saturating IgG 3131 [middle plot]
# Description: as §1
row,binding result,Binder
1,binds,B12
2,binds,B13
3,binds,B14
4,binds,B15
5,binds,B16
6,binds,B17
7,binds,B18
8,binds,B19
9,binds,B20
10,binds,B21

# Target: T1, human IL-18Rβ ECD Fc fusion …
# Assay: ELISA on recombinant human IL-18Rβ, normalised OD 450 nm, Fab with PBS or with saturating IgG 3131 [bottom plot]
# Description: as §1
row,binding result,Binder
1,binds,B22
2,binds,B23
3,binds,B24
4,binds,B25
5,binds,B26
6,binds,B27
7,binds,B28
8,binds,B29
9,binds,B30

# Target: T1, human IL-18Rβ ECD Fc fusion …
# Assay: biolayer interferometry (BLI) after legend paragraph 36; drawn table, head ka (10^4 M^-1 s^-1), Human receptor
row,kon,Binder
1,51000 M⁻¹ s⁻¹,B11

# Target: T1, human IL-18Rβ ECD Fc fusion …
# Assay: competitive binding ELISA with soluble receptor (drawn table, column IC50 (nM))
row,IC50,Binder
1,105 nM,B11

# Target: T1, human IL-18Rβ ECD Fc fusion …
# Assay: SPR (Table 5 title), Fab on human receptor
Kd,koff,kon,Binder
78 nM,0.0016 s⁻¹,20000 M⁻¹ s⁻¹,B11

# — US20240262919A1 (SHANGHAITECH UNIVERSITY, published 2024)
